Consider nine substances from article PMC4380367.

Test [1] deals with Recombinant Msf fragment Msf 1-203 (strain H44/76) (Neisseria meningitidis strain H44/76). Put plainly: SEC; HiLoad 16/60 Superdex 200 in 50 mM Tris pH 8, 200 mM NaCl; mass from peak elution volume against protein standards. (In general: In gel filtration, larger molecules generally elute earlier.)
The target in test [2] is Human vitronectin in its unfolded, activated form (human). As to the kind of experiment: ELISA; aVn coated at 74 nM; Msf constructs overlaid at 3 μM; bound Msf detected with rabbit anti-Msf polyclonal antiserum. Background: In an ELISA, binding on a coated surface is turned into a signal by an enzyme label.
The target in test [3] is Recombinant Msf fragment Msf 197-422 (strain H44/76) (Neisseria meningitidis strain H44/76). Put plainly: SDS-PAGE of unheated samples with Western blot; purified recombinant Msf proteins not heated before SDS-PAGE; detected with anti-Msf polyclonal antibody; bands near the trimeric molecular weight. (In general: In western blotting, separated proteins are transferred to a membrane and probed.)

For test [4], the target named is Msf 1-203 K60A (Neisseria meningitidis strain H44/76). The description is as above.
Test [5] deals with Msf 1-203 KK79-80AA (Neisseria meningitidis strain H44/76). The description is as above.
The target in test [6] is Msf 1-203 KIK66-68AIA (Neisseria meningitidis strain H44/76). Described as above.
Test [7] has as its target Recombinant Msf 1-422 construct lacking amino acids 4-82 (Neisseria meningitidis strain H44/76). The test is described as above.
The target of test [8] is Recombinant Msf fragment Msf 1-86 (strain H44/76) (Neisseria meningitidis strain H44/76). As to the kind of experiment: SEC; HiLoad 16/60 Superdex 200 in 50 mM Tris pH 8, 200 mM NaCl; mass from peak elution volume against protein standards.
Test [9] has as its target Recombinant Msf fragment Msf 1-422 (strain H44/76) (Neisseria meningitidis strain H44/76). The test is described as above.
The target of test [10] is Msf 1-203 KIK66-68AIA (Neisseria meningitidis strain H44/76). Put plainly: ELISA; Msf constructs (or control protein) coated at 3 μM in carbonate buffer pH 9.6; aVn 74 nM in PBS overlaid 1 h at RT; bound aVn detected with rabbit polyclonal anti-vitronectin.

As for “Recombinant Msf fragment Msf 1-203 (strain H44/76) (domain or fragment)”, the stoichiometry N in test [1] was determined as 3.
Turning to “Recombinant Msf fragment Msf 197-422 (strain H44/76) (domain or fragment)”, the fold lower binding than Msf 1-422 in test [2] was determined as 6 fold. The stoichiometry N in [3] worked out at 3.
For the substance Msf 1-203 K60A (domain or fragment), the stoichiometry N in [4] stood at 3.
With “Msf 1-203 KK79-80AA (domain or fragment)”, the stoichiometry N in test [5] worked out at 3.
Consider “Msf 1-203 KIK66-68AIA (domain or fragment)”, for which the stoichiometry N in test [6] is 3.
In the case of “Recombinant Msf 1-422 construct lacking amino acids 4-82 (domain or fragment)”, the fold reduction of binding against Msf 1-422 in [2] turned out to be 4 fold. Moreover, the stoichiometry N in test [7] is 3.
Consider “Recombinant Msf fragment Msf 1-86 (strain H44/76) (domain or fragment)”, for which the stoichiometry N in test [8] was determined as 3.
Take “Recombinant Msf fragment Msf 1-422 (strain H44/76) (domain or fragment)”: the stoichiometry N in test [9] stood at 3.
Regarding “Human vitronectin in its unfolded, activated form (natural protein)”, in [10], the reduction in Vn binding against Msf 1-203 amounted to 45%.

In general, stoichiometry N refers to a count of units in the complex or per binding partner.
